According to IntAct's records for PubMed 10801818:

B1: Zyxin (Homo sapiens), Q15942 (parent)
chain: MAAPRPSPAISVSVSAPAFYAPQKKFGPVVAPKPKVNPFRPGDSEPPPAPGAQRAQMGRVGEIPPPPPEDFPLPPPPLAGDGDDAEGALGGAFPPPPPPIEESFPPAPLEEEIFPSPPPPPEEEGGPEAPIPPPPQPREKVSSIDLEIDSLSSLLDDMTKNDPFKARVSSGYVPPPVATPFSSKSSTKPAAGGTAPLPPWKSPSSSQPLPQVPAPAQSQTQFHVQPQPQPKPQVQLHVQSQTQPVSLANTQPRGPPASSPAPAPKFSPVTPKFTPVASKFSPGAPGGSGSQPNQKLGHPEALSAGTGSPQPPSFTYAQQREKPRVQEKQHPVPPPAQNQNQVRSPGAPGPLTLKEVEELEQLTQQLMQDMEHPQRQNVAVNELCGRCHQPLARAQPAVRALGQLFHIACFTCHQCAQQLQGQQFYSLEGAPYCEGCYTDTLEKCNTCGEPITDRMLRATGKAYHPHCFTCVVCARPLEGTSFIVDQANRPHCVPDYHKQYAPRCSVCSEPIMPEPGRDETVRVVALDKNFHMKCYKCEDCGKPLSIEADDNGCFPLDGHVLCRKCHTARAQT

Variants of: B1
Settings: with enah_human ENAH

Variant | effect of a mutation on the interaction
F93A | decreasing interaction
F71A;F93A;F104A | decreasing interaction
F71A;F93A | decreasing interaction
F71A | decreasing interaction

Variants of: B1
Settings: with enah_mouse Enah

Variant | effect of a mutation on the interaction
F71A | disrupting interaction
